For this experiment, the system named is CD46 expression. As to the kind of experiment: CD46 expression by RNA-sequencing in unpaired pre-treatment and post-treatment tumor biopsies. Format: in vivo, human. As to conditions: for CD46 expression diff: Post minus Pre, unpaired biopsies, log2-transformed counts; for CD46 expression Percentage change: post- vs pre-treatment unpaired biopsies; for CD46 expression Post: post-treatment biopsies, unpaired, RNA-seq log2-transformed normalized counts.

These results are taken from patent US20240058464A1 (Fortis Therapeutics, Inc., priority 2021, published 2024).

B1: filgrastim (protein, chains of the INN, looked up)
chain: MTPLGPASSLPQSFLLKCLEQVRKIQGDGAALQEKLCATYKLCHPEELVLLGHSLGIPWAPLSSCPSQALQLAGCLSQLHSGLFLYQGLLQALEGISPELGPTLDTLQLDVADFATTIWQQMEELGMAPALQPTQGAMPAFASAFQRRAGGVLVASHLQSFLEVSYRVLRHLAQP
For the molecule B1, under “Breast Cancer”, the CD46 expression diff was 0.02, the “CD46 expression Percentage change” value is recorded as 0.3% and the “CD46 expression Post” value is 6.23.

B2: pegfilgrastim (protein, chains of the INN, looked up)
chain: TPLGPASSLPQSFLLKCLEQVRKIQGDGAALQEKLCATYKLCHPEELVLLGHSLGIPWAPLSSCPSQALQLAGCLSQLHSGLFLYQGLLQALEGISPELGPTLDTLQLDVADFATTIWQQMEELGMAPALQPTQGAMPAFASAFQRRAGGVLVASHLQSFLEVSYRVLRHLAQP
modifications: PEG
As for B2, for the setting “Breast Cancer”, the CD46 expression diff is listed as −0.13, the “CD46 expression Percentage change” value was −2.1% and the “CD46 expression Post” value is listed as 6.25. Also, for the setting “Colorectal Cancer”, the CD46 expression diff is listed as 0.29, the “CD46 expression Percentage change” value is 4.6% and the “CD46 expression Post” value was 6.62. Further, for the setting “Non-Small Cell Lung Cancer”, the CD46 expression diff came to 0.07, the “CD46 expression Percentage change” value came out at 1.2% and the “CD46 expression Post” value is 6.06.
